Laboratory results taken from PMC4529235.

Columns and labels:
[1] = target: trimeric ASIC1a concatemeric fusion protein 3_(ASIC)FP (H8-(hA1a-N1Q7)2-hA1a) (human) (UniProt P78348); assay: cross-linking; oxidation with 0.3 mM NaTT (20 min, 4°C) of Ni-NTA affinity-purified fractions from Xenopus oocytes and CHO cells, on the beads; non-reducing SDS-PAGE, anti-ASIC1a western blot
[2] = target: trimeric ASIC1a concatemeric fusion protein 3_(ASIC)FP (H8-(hA1a-N1Q7)2-hA1a) (human) (UniProt P78348); assay: cross-linking; BMOE (0.5 or 2 mM) at the cell surface of Xenopus oocytes and CHO cells before lysis, cell-surface biotinylated fractions, SDS-PAGE under reducing conditions, anti-ASIC1a western blot; band intensities pooled over oocytes and CHO cells

percent of ASIC1a that migrates as the tetramer [1]: > 60%
percent of ASIC1a that migrates as the tetramer [2]: > 60%
Substance: single ASIC1a subunit available in cells expressing 3_(ASIC)FP
